The target in the series is FLAG-KLF9 (UniProt O35739 SEQ:1-244). In words: EMSA; purified FLAG-KLF9 with 32-bp fragment, similar to adipocyte nuclear extract. Particulars: tags: FLAG; label: 32P. The protocol: […] were prepared from 293T cells, 3T3L1 adipocytes, or white adipose tissue according to a reported method (Almoguera, C. et al., J. Biol. Chem. 277, 43866-43872 (2002)). Double-stranded oligonucleotides used for the electrophoretic mobility shift assay were prepared by annealing both strands. Labeled probes (3,000 to 10,000 cpm) and the nuclear extracts were mixed in a reaction solution (20 μL: 10 mM Tris-HCl (pH7.6), 50 mM KCl, 0.05 mM EDTA, 2.5 mM MgCl₂, 8.5% glycerol, 1 mM dithiothreitol, 0.5 μg/mL of poly(dI-dC), 0.1% Triton X, and 1 mg/mL of skim milk), and incubated for 30 minutes on ice. The DNA-protein complexes were fractionated on a 4.6% polyacrylamide gel at 140 V for 1 hour at 4° C. The Gel was dried and exposed using a BAS2000 filter with BAStation software (Fuji Photo Film).
Chain of FLAG-KLF9 (O35739 other isoform, or with tags, fused parts or gaps): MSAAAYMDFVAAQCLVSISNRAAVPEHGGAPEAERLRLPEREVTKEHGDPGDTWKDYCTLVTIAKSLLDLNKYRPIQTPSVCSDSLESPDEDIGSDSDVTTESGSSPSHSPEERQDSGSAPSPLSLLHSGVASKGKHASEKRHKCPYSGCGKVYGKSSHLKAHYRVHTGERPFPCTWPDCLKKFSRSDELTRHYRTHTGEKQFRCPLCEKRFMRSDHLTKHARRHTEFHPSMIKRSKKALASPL

Data on one molecule can be found in patent US20070203061, “Adiponectin expression-inducing agents and uses thereof” (TOUDAI TLO, LTD, published 2007).

B1: adiponectin promoter -188/-157 32-bp element (dsDNA)
DNA 1: GAAGCCCAAGCTGGGTTGTACCAGGTTCCCTA
DNA 2: TAGGGAACCTGGTACAACCCAGCTTGGGCTTC
With B1, the binding result is recorded as “binds”.
